Results: PMC12756740, “A GH42 β‑Galactosidase from the Human Isolate Bifidobacterium breve DSM 20213: Biochemical and Transgalactosylation Properties Reveal the Potential for Galacto-oligosaccharides Synthesis” (ACS Omega, 2025)

Target: GH42 β-galactosidase Bbreβgal-III from Bifidobacterium breve DSM 20213 (Bifidobacterium breve DSM 20213)
Assay: SEC-MALS; OMNISEC multidetector GPC/SEC (RI, UV/Vis, RALS 90° + LALS 7°); 22 μL injected at 13.4 mg/mL, 0.5 mL/min, 20 °C, DPBS without Ca2+ and Mg2+; dn/dc 0.185 mL/g; oligomeric state of the enzyme

stoichiometry N: 3
Substance: GH42 β-galactosidase Bbreβgal-III from Bifidobacterium breve DSM 20213 (enzyme)
